# Literature values in article PMC8416071.
# Target: Spike protein (SARS-CoV) (UniProt P59594)
# Experiment: ITC
substance,measurement,value
Griffithsin (from UniProt P84801),Kd,24.9 nM
